{"source": "patent US20220017863", "proteins": {"B1": {"name": "Sirt2 (protein)", "chain": "AEPDPSDPLETQAGKVQEAQDSDSDTEGGATGGEAEMDFLRNLFTQTLGLGSQKERLLDELTLEGVTRYMQSERCRKVICLVGAGISTSAGIPDFRSPSTGLYANLEKYHLPYPEAIFEISYFKKHPEPFFALAKELYPGQFKPTICHYFIRLLKEKGLLLRCYTQNIDTLERVAGLEPQDLVEAHGTFYTSHCVNTSCRKEYTMGWMKEKIFSEATPRCEQCQSVVKPDIVFFGENLPSRFFSCMQSDFSKVDLLIIMGTSLQVQPFASLISKAPLATPRLLINKEKTGQTDPFLGMMMGLGGGMDFDSKKAYRDVAWLGDCDQGCLALADLLGWKKELEDLVRREHANIDAQSGSQAPNPSTTISPGKSPPPAKEAARTKEKEEQQ"}}, "key": {"[1]": {"target": "T1, isocitrate dehydrogenase, P54071", "T1 chain": "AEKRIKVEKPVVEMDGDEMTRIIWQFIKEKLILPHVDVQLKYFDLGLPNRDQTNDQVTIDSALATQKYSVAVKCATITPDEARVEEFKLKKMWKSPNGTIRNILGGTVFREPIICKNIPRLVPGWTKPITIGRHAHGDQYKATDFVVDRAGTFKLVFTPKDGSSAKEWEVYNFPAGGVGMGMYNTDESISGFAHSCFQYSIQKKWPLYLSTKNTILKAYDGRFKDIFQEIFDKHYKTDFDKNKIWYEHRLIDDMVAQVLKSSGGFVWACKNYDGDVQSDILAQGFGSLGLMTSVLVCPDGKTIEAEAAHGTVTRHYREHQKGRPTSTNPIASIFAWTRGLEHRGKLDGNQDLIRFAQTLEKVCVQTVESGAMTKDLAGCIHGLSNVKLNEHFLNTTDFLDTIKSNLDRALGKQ"}, "[2]": {"target": "T2, phosphoglycerate kinase 1 (PGK1), P09411", "T2 chain": "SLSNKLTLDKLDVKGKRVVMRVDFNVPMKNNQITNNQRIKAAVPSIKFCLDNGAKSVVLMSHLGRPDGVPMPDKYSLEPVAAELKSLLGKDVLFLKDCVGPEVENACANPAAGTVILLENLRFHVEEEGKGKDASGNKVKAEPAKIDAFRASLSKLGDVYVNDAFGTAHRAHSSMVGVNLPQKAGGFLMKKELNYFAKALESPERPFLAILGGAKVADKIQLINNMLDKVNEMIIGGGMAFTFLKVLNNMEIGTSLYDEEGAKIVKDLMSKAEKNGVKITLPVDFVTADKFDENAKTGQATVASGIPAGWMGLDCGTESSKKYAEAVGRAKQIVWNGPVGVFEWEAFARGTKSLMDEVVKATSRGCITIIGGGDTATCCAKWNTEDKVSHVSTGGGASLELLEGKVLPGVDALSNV"}, "[3]": {"target": "T3, aconitase 2 (ACO2), Q99KI0", "T3 chain": "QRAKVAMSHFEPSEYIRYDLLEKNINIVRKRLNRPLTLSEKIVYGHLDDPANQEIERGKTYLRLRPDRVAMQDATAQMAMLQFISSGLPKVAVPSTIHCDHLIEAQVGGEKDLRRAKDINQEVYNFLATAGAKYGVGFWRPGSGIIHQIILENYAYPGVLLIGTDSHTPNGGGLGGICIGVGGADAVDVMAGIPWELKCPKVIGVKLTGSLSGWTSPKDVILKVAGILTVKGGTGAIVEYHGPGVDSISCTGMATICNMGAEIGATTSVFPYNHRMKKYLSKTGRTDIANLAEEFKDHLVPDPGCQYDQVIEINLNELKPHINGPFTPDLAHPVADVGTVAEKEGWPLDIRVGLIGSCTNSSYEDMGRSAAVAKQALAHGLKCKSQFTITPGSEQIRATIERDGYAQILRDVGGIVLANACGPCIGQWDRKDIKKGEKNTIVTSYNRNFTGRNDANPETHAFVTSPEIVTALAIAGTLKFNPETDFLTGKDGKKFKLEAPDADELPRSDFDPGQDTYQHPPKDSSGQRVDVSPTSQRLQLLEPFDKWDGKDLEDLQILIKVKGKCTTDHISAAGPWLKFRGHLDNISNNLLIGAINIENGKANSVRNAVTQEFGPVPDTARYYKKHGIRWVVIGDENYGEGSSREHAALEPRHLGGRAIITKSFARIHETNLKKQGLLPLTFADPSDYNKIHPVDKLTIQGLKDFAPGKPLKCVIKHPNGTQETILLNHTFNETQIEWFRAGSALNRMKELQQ"}, "[4]": {"target": "pyruvate kinase M (PKM), P52480", "sequence (P52480 whole entry)": "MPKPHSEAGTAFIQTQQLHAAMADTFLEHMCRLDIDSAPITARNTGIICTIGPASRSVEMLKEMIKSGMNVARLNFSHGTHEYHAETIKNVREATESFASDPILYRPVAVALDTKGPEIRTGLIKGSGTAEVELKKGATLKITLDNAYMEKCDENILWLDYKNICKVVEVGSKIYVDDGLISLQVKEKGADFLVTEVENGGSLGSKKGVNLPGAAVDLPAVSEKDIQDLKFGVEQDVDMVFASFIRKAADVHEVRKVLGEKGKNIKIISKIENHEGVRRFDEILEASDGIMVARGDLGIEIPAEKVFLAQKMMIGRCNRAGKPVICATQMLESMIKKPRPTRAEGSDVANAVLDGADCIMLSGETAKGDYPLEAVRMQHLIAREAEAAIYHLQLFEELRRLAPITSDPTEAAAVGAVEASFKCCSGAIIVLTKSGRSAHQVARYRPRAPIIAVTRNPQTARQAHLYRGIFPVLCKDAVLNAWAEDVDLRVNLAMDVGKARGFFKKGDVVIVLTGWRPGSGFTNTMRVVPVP"}, "enolase 1 (ENO1), P17182": {"target": "T4, enolase 1 (ENO1), P17182", "T4 chain": "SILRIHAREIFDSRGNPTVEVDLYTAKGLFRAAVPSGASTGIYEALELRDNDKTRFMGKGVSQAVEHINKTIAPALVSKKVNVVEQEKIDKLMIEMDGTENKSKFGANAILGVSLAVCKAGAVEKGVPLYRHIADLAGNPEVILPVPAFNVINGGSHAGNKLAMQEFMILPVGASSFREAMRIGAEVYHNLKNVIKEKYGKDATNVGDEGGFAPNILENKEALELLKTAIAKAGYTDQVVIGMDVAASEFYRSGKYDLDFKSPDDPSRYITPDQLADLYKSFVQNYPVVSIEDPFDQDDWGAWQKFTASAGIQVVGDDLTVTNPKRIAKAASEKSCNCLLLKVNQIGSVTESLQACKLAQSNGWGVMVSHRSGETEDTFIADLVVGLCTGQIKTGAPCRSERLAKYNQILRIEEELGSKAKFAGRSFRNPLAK"}, "[5]": {"target": "succinate dehydrogenase subunit alpha (SDHA), Q8K2B3", "sequence (Q8K2B3 43-664)": "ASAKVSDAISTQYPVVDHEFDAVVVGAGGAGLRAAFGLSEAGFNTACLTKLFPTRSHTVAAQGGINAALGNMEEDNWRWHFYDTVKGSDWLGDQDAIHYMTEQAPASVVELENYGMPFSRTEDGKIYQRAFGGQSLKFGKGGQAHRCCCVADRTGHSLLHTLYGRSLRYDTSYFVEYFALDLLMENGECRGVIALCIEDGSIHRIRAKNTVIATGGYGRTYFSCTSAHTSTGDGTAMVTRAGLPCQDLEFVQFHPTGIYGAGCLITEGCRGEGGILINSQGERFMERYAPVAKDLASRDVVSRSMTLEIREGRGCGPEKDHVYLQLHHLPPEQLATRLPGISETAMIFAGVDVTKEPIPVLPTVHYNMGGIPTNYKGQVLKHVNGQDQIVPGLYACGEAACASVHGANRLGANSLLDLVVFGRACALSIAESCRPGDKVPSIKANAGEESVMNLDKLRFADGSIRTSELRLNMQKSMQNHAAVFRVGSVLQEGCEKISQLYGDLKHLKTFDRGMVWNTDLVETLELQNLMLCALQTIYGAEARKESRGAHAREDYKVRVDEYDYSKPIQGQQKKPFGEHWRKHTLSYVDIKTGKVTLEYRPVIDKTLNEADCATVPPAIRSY"}, "[6]": {"target": "T5, aldolase A (ALDOA), P05064", "T5 chain": "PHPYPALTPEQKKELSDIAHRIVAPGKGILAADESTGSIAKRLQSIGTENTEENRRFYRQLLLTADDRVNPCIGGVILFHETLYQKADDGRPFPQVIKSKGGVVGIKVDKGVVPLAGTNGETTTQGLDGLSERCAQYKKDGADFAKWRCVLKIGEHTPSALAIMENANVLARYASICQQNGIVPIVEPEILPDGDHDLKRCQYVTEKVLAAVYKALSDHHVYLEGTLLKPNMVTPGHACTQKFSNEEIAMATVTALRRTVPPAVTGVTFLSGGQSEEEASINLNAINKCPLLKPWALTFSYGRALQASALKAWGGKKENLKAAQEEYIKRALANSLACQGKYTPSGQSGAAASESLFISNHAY"}, "[7]": {"target": "lactate dehydrogenase (LDH), P06151"}, "[8]": {"target": "glutamate dehydrogenase (GDH), P26443", "sequence (P26443 54-558)": "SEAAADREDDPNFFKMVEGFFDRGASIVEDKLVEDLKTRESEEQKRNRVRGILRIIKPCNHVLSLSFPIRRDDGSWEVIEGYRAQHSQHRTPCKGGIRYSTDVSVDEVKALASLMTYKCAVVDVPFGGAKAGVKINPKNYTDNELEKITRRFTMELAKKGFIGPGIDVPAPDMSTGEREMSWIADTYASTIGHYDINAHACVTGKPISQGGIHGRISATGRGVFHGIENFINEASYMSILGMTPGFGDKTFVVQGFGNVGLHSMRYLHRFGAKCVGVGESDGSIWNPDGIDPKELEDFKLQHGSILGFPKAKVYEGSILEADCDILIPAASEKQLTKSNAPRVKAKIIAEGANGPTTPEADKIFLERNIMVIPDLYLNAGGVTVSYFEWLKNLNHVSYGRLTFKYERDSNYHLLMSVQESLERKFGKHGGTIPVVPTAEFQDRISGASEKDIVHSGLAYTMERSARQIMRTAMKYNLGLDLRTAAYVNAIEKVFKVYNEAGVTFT"}, "[9]": {"target": "T6, Hydroxyacyl-CoA Dehydrogenase Trifunctional Multienzyme Complex Subunit Beta (HADHB), Q99JY0", "T6 chain": "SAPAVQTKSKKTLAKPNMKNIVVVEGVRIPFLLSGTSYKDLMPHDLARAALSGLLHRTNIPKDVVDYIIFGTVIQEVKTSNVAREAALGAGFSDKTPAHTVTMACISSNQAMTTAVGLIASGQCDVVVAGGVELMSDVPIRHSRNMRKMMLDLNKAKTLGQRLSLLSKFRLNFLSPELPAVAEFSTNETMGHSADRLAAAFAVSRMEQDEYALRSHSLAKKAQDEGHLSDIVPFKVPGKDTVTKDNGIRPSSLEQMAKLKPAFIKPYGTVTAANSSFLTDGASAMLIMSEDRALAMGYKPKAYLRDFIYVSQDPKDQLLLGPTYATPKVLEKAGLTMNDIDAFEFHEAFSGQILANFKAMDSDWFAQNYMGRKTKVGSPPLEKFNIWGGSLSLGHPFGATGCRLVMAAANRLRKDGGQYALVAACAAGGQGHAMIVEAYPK"}, "[10]": {"target": "T7, glutaminase (GLS), D3Z7P3", "T7 chain": "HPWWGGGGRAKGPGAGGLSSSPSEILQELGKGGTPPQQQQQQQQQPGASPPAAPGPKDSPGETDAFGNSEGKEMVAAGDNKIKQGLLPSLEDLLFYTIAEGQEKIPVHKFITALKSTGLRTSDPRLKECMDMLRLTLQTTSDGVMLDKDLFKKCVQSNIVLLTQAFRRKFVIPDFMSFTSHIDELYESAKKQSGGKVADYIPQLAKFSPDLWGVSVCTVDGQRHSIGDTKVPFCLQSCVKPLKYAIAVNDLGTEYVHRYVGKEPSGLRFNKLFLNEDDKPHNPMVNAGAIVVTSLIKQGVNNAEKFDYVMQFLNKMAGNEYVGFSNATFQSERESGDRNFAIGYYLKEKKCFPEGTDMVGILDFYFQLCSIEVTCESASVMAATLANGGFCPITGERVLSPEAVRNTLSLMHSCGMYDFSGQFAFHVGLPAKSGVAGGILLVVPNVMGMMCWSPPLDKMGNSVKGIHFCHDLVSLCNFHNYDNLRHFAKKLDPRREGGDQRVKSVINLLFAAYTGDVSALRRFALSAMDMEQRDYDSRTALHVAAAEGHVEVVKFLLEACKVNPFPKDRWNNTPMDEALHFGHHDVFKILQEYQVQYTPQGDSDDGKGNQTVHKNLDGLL"}, "[11]": {"target": "glyceraldehyde-3-phosphate dehydrogenase (GAPDH), P16858", "sequence (P16858 whole entry)": "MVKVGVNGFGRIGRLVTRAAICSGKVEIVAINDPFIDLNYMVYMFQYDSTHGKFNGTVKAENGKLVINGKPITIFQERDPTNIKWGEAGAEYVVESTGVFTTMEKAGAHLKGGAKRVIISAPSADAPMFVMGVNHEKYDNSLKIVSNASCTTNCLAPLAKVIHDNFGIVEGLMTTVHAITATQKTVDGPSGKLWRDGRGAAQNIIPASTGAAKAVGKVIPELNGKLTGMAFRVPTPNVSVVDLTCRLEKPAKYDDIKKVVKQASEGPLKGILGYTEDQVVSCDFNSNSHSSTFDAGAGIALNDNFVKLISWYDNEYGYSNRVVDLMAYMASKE"}, "[12]": {"target": "T8, malate dehydrogenase, P08249", "T8 chain": "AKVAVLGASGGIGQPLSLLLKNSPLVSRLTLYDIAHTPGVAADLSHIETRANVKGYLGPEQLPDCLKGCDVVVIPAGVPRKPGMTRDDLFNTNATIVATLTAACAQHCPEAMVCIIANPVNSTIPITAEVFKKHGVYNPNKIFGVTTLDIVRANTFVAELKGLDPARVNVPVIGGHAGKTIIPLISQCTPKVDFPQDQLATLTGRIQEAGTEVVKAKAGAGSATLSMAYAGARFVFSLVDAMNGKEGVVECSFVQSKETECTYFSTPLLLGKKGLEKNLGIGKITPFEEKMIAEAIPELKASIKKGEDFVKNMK"}, "[13]": {"target": "succinate-CoA ligase alpha subunit (SUCLG1), Q9WUM5", "sequence (Q9WUM5 35-346)": "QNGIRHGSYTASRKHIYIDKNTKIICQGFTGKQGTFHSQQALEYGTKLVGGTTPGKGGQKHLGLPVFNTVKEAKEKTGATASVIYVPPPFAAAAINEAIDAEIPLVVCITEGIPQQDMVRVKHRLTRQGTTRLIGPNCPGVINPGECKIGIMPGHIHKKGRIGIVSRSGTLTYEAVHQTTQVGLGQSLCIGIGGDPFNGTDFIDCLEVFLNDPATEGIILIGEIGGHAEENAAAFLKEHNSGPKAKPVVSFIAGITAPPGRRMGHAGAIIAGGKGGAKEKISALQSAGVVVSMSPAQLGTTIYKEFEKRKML"}}, "data": [{"protein": "B1", "values": [{"measurement": "acetylated peptide intensity (acetyl-lysine IP, LC-MS/MS, EIC)", "setting": "[1]", "value": "peptide NILGGTVFREPIICKNIPR (SEQ ID NO:8) from isocitrate dehydrogenase ... acetylation site K155 ... increased acetylation intensity in Sirt2^-/- sample versus WT"}, {"measurement": "acetylated peptide intensity (acetyl-lysine IP, LC-MS/MS, EIC)", "setting": "[2]", "value": "peptide SVVLMSHLGRPDGVPMPDKYSLEPVAAELK (SEQ ID NO:4) from phosphoglycerate kinase 1 ... acetylation site K75 ... increased acetylation intensity in Sirt2^-/- sample versus WT"}, {"measurement": "acetylated peptide intensity (acetyl-lysine IP, LC-MS/MS, EIC)", "setting": "[3]", "value": "peptide NFTGRNDANPETHAFVTSPEIVTALAIAGTLKFNPETDFLTGKDGK (SEQ ID NO:7) from aconitase 2 ... acetylation site K506 ... increased acetylation intensity in Sirt2^-/- sample versus WT"}, {"measurement": "acetylated peptide intensity (acetyl-lysine IP, LC-MS/MS, EIC)", "setting": "[4]", "value": "peptide CCSGAIIVLTKSGR (SEQ ID NO:6) from pyruvate kinase M ... acetylation site K433 ... increased acetylation intensity in Sirt2^-/- sample versus WT"}, {"measurement": "acetylated peptide intensity (acetyl-lysine IP, LC-MS/MS, EIC)", "setting": "enolase 1 (ENO1), P17182", "value": "peptide SCNCLLLKVNQIGSVTESLQACK (SEQ ID NO:2) from enolase 1 ... acetylation site K343 ... increased acetylation intensity in Sirt2^-/- sample versus WT"}, {"measurement": "acetylated peptide intensity (acetyl-lysine IP, LC-MS/MS, EIC)", "setting": "[5]", "value": "peptide ISQLYGDLKHLK (SEQ ID NO:10) from Succinate Dehydrogenase Subunit Alpha ... acetylation site K544 ... increased acetylation intensity in Sirt2^-/- sample versus WT"}, {"measurement": "acetylated peptide intensity (acetyl-lysine IP, LC-MS/MS, EIC)", "setting": "[6]", "value": "peptide GILAADESTGSIAKR (SEQ ID NO:1) from aldolase A ... acetylation site K42 ... increased acetylation intensity in Sirt2^-/- sample versus WT"}, {"measurement": "acetylated peptide intensity (acetyl-lysine IP, LC-MS/MS, EIC)", "setting": "[7]", "value": "peptide FIIPNIVKYSPHCK (SEQ ID NO:3) from lactate dehydrogenase ... acetylation site K126 ... increased acetylation intensity in Sirt2^-/- sample versus WT"}, {"measurement": "acetylated peptide intensity (acetyl-lysine IP, LC-MS/MS, EIC)", "setting": "[8]", "value": "peptide LTFKYER (SEQ ID NO:14) from GDH ... acetylation site K457 ... increased acetylation intensity in Sirt2^-/- sample versus WT"}, {"measurement": "acetylated peptide intensity (acetyl-lysine IP, LC-MS/MS, EIC)", "setting": "[9]", "value": "peptide GQQQVFKGLNDK (SEQ ID NO:12) from HADHB ... acetylation site K406 ... increased acetylation intensity in Sirt2^-/- sample versus WT"}, {"measurement": "acetylated peptide intensity (acetyl-lysine IP, LC-MS/MS, EIC)", "setting": "[10]", "value": "peptide FITALKSTG (SEQ ID NO:13) from GLS ... acetylation site K169 ... increased acetylation intensity in Sirt2^-/- sample versus WT"}, {"measurement": "acetylated peptide intensity (acetyl-lysine IP, LC-MS/MS, EIC)", "setting": "[11]", "value": "peptide WGEAGAEYVVESTGVFTTMEKAGAHLK (SEQ ID NO:5) from glyceraldehyde-3-phosphate dehydrogenase ... acetylation site K105 ... increased acetylation intensity in Sirt2^-/- sample versus WT"}, {"measurement": "acetylated peptide intensity (acetyl-lysine IP, LC-MS/MS, EIC)", "setting": "[12]", "value": "peptide ETECTYFSTPLLLGKK (SEQ ID NO:11) from malate dehydrogenase ... acetylation site K296 ... increased acetylation intensity in Sirt2^-/- sample versus WT"}, {"measurement": "acetylated peptide intensity (acetyl-lysine IP, LC-MS/MS, EIC)", "setting": "[13]", "value": "peptide SSDEAYAIAKK (SEQ ID NO:9) from Succinyl-CoA Ligase ... acetylation site K125 ... increased acetylation intensity in Sirt2^-/- sample versus WT"}]}]}
